Laboratory results as given in US20140072563A1 (Regeneron, published 2014).
Where a chain is given by its changes, count along the chain named. Numbers in names are those of the source. Values belong to the binder of their own block, whether it stands above or below them.

What was measured:
[1] = biological target: ErbB3 (cell surface, on MCF-7, DU145, A431 and MCF7 cells) (human, UniProt P21860 20-1342); experiment: cell-based or functional assay
[2] = biological target: T1, ErbB3-mFc (human); experiment: blocking ELISA: antibody (0-50 nM) + 50 pM ErbB3-mFc, binding to coated neuregulin1b
T1 construct: Dimeric soluble ErbB3; also called hErbB3.mFc
T1 chain: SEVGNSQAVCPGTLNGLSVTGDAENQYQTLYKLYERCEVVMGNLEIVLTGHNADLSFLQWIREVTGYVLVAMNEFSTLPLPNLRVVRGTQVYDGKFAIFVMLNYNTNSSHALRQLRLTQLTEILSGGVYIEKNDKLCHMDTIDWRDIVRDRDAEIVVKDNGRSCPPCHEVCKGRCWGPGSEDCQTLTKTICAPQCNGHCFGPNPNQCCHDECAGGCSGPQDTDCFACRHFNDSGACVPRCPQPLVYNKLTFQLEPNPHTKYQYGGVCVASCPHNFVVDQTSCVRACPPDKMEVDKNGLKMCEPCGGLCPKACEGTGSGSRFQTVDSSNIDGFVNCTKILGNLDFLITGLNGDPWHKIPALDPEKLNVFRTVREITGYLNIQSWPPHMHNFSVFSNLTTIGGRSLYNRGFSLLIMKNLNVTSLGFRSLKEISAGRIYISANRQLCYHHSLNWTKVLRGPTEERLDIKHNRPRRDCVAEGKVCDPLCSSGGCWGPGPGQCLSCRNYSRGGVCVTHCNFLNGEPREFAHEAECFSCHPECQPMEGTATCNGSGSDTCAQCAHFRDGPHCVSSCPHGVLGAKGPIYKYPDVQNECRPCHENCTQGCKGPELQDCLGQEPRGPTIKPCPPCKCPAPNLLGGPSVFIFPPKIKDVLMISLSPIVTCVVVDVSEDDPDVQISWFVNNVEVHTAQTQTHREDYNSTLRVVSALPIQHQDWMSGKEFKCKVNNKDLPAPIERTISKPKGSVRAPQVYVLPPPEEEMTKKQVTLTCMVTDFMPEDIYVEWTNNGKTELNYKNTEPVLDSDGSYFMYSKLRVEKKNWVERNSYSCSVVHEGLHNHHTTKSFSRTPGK
Excerpt: To further characterize anti-hErbB3 mAbs of the present invention, their ability to block ligand binding was examined via ELISA. […] Plates were washed and non-sequestered (plate bound) ErbB3 was detected with an anti-Fc poly conjugated with horseradish peroxidase (HRP). Plates were developed with TMB (3,3′,5,5′-tetramethylbenzidine) and neutralized with sulfuric acid before reading absorbance at 450 nm on a Victor X5 plate reader. Data analysis used a sigmoidal dose-response model within Prism™ software. […] Maximal blocking for each antibody was calculated by taking the difference in absorbance from zero to 50 nM antibody on the inhibition curve, divided by the difference in absorbance from 50 pM to zero ErbB3 on the dose curve.

B1: H2M1821N (antibody, mouse IgG2, V domains shown)
VH: EVQLVESGGGLVQPGRSLRLSCAASGFTFDDYAMHWVRQAPGKGLEWVSSISWNSGSIGYADSVKGRFTISRDNAKNSLYLQMNSLKPEDTALYYCTKDTDYGDYLDAFDIWGQGTMVAVAS
VL: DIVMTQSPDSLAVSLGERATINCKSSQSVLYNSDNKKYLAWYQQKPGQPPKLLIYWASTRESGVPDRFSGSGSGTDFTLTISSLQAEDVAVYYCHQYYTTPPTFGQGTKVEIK
Percent inhibition of Akt phosphorylation, 0.01 µg/ml ErbB3 antibody, DU145 cells + 0.5 nM NRG1 [1]: 11%
Percent inhibition of Akt phosphorylation, 0.1 µg/ml ErbB3 antibody, DU145 cells + 0.5 nM NRG1 [1]: 68%
Percent inhibition of Akt phosphorylation, 0.5 µg/ml ErbB3 antibody, DU145 cells + 0.5 nM NRG1 [1]: 73%

B4: H2M1827N (antibody, mouse IgG2, V domains shown)
VH: EVQLVESGGGVVRPGGSLRLSCAASGFTFDDYGMSWVRQAPGKGLECVSGISWNGGNTDYADSVKGRFTISRDNAKNSLYLQMNSLRAEDTALYHCARDGGDWDYFDLWGRGTLVTVSS
VL: EILMTQSPATLSVSPGERATLSCRASQSVSSNLAWYQQKPGQAPRLLIYGASTRATGIPARFSGSGSGTEFTLTISSLQSEDFAIYYCQEYNDWPLTFGGGTKVEIK
Percent inhibition of Akt phosphorylation, 0.01 µg/ml ErbB3 antibody, DU145 cells + 0.5 nM NRG1 [1]: 16%
Percent inhibition of Akt phosphorylation, 0.1 µg/ml ErbB3 antibody, DU145 cells + 0.5 nM NRG1 [1]: 73%
Percent inhibition of Akt phosphorylation, 0.5 µg/ml ErbB3 antibody, DU145 cells + 0.5 nM NRG1 [1]: 75%

B8: H4H2148P (antibody, human IgG4, V domains shown)
VH: EVQLVESGGGLVHPGRSLRLSCAASGFTFDDYAMHWVRQSPGKGLEWVSGISWNSVIKHSTDSVRGRFTISRDNAKNSLYLQMNSLKPEDTAFYYCAKDEDDWNYLDYWGQGTLVTVSS
VL: DIQMTQSPSSVSASVGDRVTITCRASQDINSWLAWYQQKPGKAPKLLIYTSSNLQSGVPSRFSGSGSGTDFTLTISSLQPEDFATYYCQQSDSFPFTFGPGTKVDIKR
notes: Human IgG4 Fc (prefix H4H)
IC50 [2]: 50.8 pM
Maximal Blocking (%) [2]: 100%

B10: H4H2151P (antibody, human IgG4, V domains shown)
VH: QVQLVESGGGVVQPGRSLRLSCAASGFTFSNYGMHWVRQAPGKGLEWVARIWYDGSNKYYADSVKGRFTISRDSSKNTLYLQMNSLRAEDTAVYYCAREGEQNLDYYPLDVWGQGTTVTVSS
VL: DIVMTQSPSSLSASVGDRVTITCRASQDIRNDLGWYQQKPGKAPKLLIYAASSLQTGVPSRFSGSVSGTDFTLTISSLQPEDFATYYCLQDYTYPLTFGGGTKVEIK
notes: Human IgG4 Fc (prefix H4H)
IC50 [2]: 75.1 pM
Maximal Blocking (%) [2]: 85%

B12: H1M1819N (antibody, V domains shown)
VH: EVQLVESGGGVVRPGGSLRLSCAASGFTFDDYAMHWVRQAPGKGLEWVAGISWNSGSIDYADSVKGRFTISRDNAKNSLYLQMNSLRAGDTALYYCAKDILDLDYYGLDVWGQGTTVTVSS
VL: DIQMTQSPSSLSASVGDRVTITCRASQDISSYLAWYQQKPGKVPNLLIYDASSLQSGVPSRFSGSGSGTDFTLTLSSLQPEDFASYYCQNYNSAPYTFGQGTKLEIK
Percent inhibition of Akt phosphorylation, 0.01 µg/ml ErbB3 antibody, DU145 cells + 0.5 nM NRG1 [1]: 29%
Percent inhibition of Akt phosphorylation, 0.1 µg/ml ErbB3 antibody, DU145 cells + 0.5 nM NRG1 [1]: 72%
Percent inhibition of Akt phosphorylation, 0.5 µg/ml ErbB3 antibody, DU145 cells + 0.5 nM NRG1 [1]: 75%

B14: H4H2153P (antibody, human IgG4, V domains shown)
VH: QVQLVQSGAEVKKPGASVKVSCKASGYTFTRYGISWVRQAPGLGLEWMGWISAYDGYTNFAQKFQGRFTMTTDTSTNTAYMELRGLRSDDTAVYYCAREEEDAAFDIWGQGTMVTVSS
VL: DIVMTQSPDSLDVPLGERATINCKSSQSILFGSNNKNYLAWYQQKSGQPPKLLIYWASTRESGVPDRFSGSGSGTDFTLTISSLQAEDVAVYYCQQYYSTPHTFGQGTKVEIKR
notes: Human IgG4 Fc (prefix H4H)
IC50 [2]: 74 pM
Maximal Blocking (%) [2]: 82%

B15: H4H2140P (antibody, human IgG4, V domains shown)
VH: EVQLVESGGGLVQPGGSLRLSCAASGFSVSYYDMHWVRQVTGKGLEWVSAIGPAGDTYYPGSVKGRFTISREDATNSLYLQIHSLGAGDTAVYYCAREGAIAARPDDYYGMDVWGQGTTVTVSS
VL: DIQLTQSPSFLSASVGDRVTITCWASQDISSYLAWYQQKPGKAPKLLIYAASTLQSGVPSRFSGSGSGTEFTLTISSLQPEDFATYYCQQLNSYPLTFGGGTKVEIKR
notes: Human IgG4 Fc (prefix H4H)
IC50 [2]: 94.6 pM
Maximal Blocking (%) [2]: 83%

B16: H4H2143P (antibody, human IgG4, V domains shown)
VH: EVQLVESGGGLVQPGRSLRLSCAASGFTFGDYAMHWVRQAPGKGLEWVSGINLNSGTIGYADSVKGRFTISRDNAKNSLYLQMNSLRAEDTAFYYCAKDIDGYYHYAMDVWGQGTTVTVSS
VL: B15 VL with I2V, Q3V, L4M, D28G, A50D, Q55E, S77N, L91V
notes: Human IgG4 Fc (prefix H4H)
IC50 [2]: 83.5 pM
Maximal Blocking (%) [2]: 92%

The next lines start with the values.

IC50 [2]: 66.4 pM
Maximal Blocking (%) [2]: 99%
B2: H4H2290P (antibody, human IgG4, V domains shown)
VH: EVQLLESGGGLVQPGGSLRLSCVASGFTFSSFAMSWVRQAPGKGLEWVSVISGSGGSTNHADSVRGRFTISRDNSLNTVYLQMHSLRAEDTALYYCVKAETSSSYFYYGMDVWGQGTTVTVSS
VL: DIQLTQSPSFLSASVGDRVTITCWASQDISSYLAWYQQKPGKVPNLLIYGASSLQPGVPSRFSGSGSGTEFTLTISSLQPEDFATYYCQQLNNYPTFGGGTKLEIKR
notes: Human IgG4 Fc (prefix H4H)

Percent inhibition of Akt phosphorylation, 0.01 µg/ml ErbB3 antibody, DU145 cells + 0.5 nM NRG1 [1]: 25%
Percent inhibition of Akt phosphorylation, 0.1 µg/ml ErbB3 antibody, DU145 cells + 0.5 nM NRG1 [1]: 63%
Percent inhibition of Akt phosphorylation, 0.5 µg/ml ErbB3 antibody, DU145 cells + 0.5 nM NRG1 [1]: 74%
B3: H2M1824N (antibody, mouse IgG2, V domains shown)
VH: B4 VH with S52N, N57S, L93S, H95Y
VL: B4 VL with L3V, I85V, Y87F

Percent inhibition of Akt phosphorylation, 0.01 µg/ml ErbB3 antibody, DU145 cells + 0.5 nM NRG1 [1]: 22%
Percent inhibition of Akt phosphorylation, 0.1 µg/ml ErbB3 antibody, DU145 cells + 0.5 nM NRG1 [1]: 74%
Percent inhibition of Akt phosphorylation, 0.5 µg/ml ErbB3 antibody, DU145 cells + 0.5 nM NRG1 [1]: 74%
B5: H2M1829N (antibody, mouse IgG2, V domains shown)
VH: B4 VH with A23V, S52N, N57S
VL: B4 VL

IC50 [2]: 177 pM
Maximal Blocking (%) [2]: 83%
B6: H4H2146P (antibody, human IgG4, V domains shown)
VH: QVQLVESGGGVVQPGRSLRLSCAASGFTFINYGIHWVRQGPGKGLEWVAVIWYDGSNEWYADSVKGRFTISRDNSKNTVYLEMNKLRAEDTAVYYCAREEEDYGMDVWGQGTTVTVSS
VL: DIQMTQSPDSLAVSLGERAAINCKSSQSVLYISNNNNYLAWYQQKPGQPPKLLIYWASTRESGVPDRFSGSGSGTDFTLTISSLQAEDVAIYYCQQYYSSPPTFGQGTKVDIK
notes: Human IgG4 Fc (prefix H4H)

IC50 [2]: 106 pM
Maximal Blocking (%) [2]: 96%
B7: H4H2138P (antibody, human IgG4, V domains shown)
VH: QVQLQESGPGLVKPSQTLSLTCTVSGGSINSGGYYWSWIRQHPGKGLEWIGYISYSGNTNYNPSLKSRVTISVDTSKNQFSLTLTSVTAADTAVYYCARDSDVDTGLVDGFDVWGQGTMVTVSS
VL: DIVMTQSPSSVSASVGDRVTITCRASQGVSSWLAWYQQKPGKAPKLLIYTTSSLQSGVPSRFSGSGSGTDFTLTISSLQPEDFATYYCQQSNSFPFTFGPGTKVEIK
notes: Human IgG4 Fc (prefix H4H)

IC50 [2]: 90.1 pM
Maximal Blocking (%) [2]: 91%
B9: H4H2154P (antibody, human IgG4, V domains shown)
VH: QVQLQESGPGLINPSQTLSVTCTVSGGSISSGGYYWTWIRQHPGKGLEWIGYISYSGNTNYNPSLKSRVTISVDTAKNQFSLKLSSVTAADTAVYFCARDSDVDTAMVDGIDIWGQGTMVTVSS
VL: B8 VL with N30S, K42R, S51A, N53S, Y87F, S91A, D92N
notes: Human IgG4 Fc (prefix H4H)

Percent inhibition of Akt phosphorylation, 0.01 µg/ml ErbB3 antibody, DU145 cells + 0.5 nM NRG1 [1]: 22%
Percent inhibition of Akt phosphorylation, 0.1 µg/ml ErbB3 antibody, DU145 cells + 0.5 nM NRG1 [1]: 66%
Percent inhibition of Akt phosphorylation, 0.5 µg/ml ErbB3 antibody, DU145 cells + 0.5 nM NRG1 [1]: 75%
B11: H1M1828N (antibody, V domains shown)
VH: EVQLVESGGGLVQPGRSLRLSCAASGFTFDDYAMYWVRQAPGKGLEWVSGISWNSGSIGYADSVKGRFTISRDNAKNSLYLQMDSLRAEDTALYYCARDMMEVDLYGMDVWGQGTTVTVSS
VL: DIQMTQSPSSVSASVGDRVTITCRASQDISSWLAWYQQKPGTAPKFLIYETSSLQSGVPSRFSGSGSGTDFILTISSLQPEDFATYYCQQTDSFPHTFGQGTKLEIR

IC50 [2]: 95.7 pM
Maximal Blocking (%) [2]: 94%
B13: H4H2132P (antibody, human IgG4, V domains shown)
VH: EVQLVESGGGVVRPGGSLRLSCAASGFTFDDYGMSWVRQFPGKGLEWVSSIDGNGGNTGYSDSVKGRFTISRDNAKNSLHLQMNSLRAEDTALYHCARDPDYDSVWGNYRPFDYWGQGTLVTVSS
VL: DIVMTQSPDSLAVSLGERATINCKSSQSVLSSSNDNNYLAWFQQKPGQPPNLLIYWASTRDSGVPDRFSASGSGTDFTLAISSLQAEDVAVYYCHQYYSSPPTFGQGTKVEIKR
notes: Human IgG4 Fc (prefix H4H)

IC50 [2]: 50.6 pM
Maximal Blocking (%) [2]: 99%
B17: H4H2147P (antibody, human IgG4, V domains shown)
VH: QVQLVESGGGLVKPGGSLRLSCAASGFTFSDFNMGWIRQAPGKGLEWVSHISGSGNVIYYADSVKGRFAISRDNGKNSLYLQVNSLRAEDTAVYYCARDIGDSDAFDIWGQGTMVTVSS
VL: B15 VL with A50G, Q55E, F83V, S93T
notes: Human IgG4 Fc (prefix H4H)
